The numbers were not newly measured in paper PMC3113683 (Biochemistry, 2009), which cites them from elsewhere.

For one data set, the system named is LYP. Conditions: ref [7], [18]; cited from earlier work.
The subject of data set [1] is T cell receptor (TCR) signaling. Conditions: cited from earlier work.
For the next data set, the system named is PEP. Conditions: immunoprecipitated full-length PEP vs amino acids 1−290; ref [5]; cited from earlier work.

B1: LYP-W620: genetic variant of LYP carrying Trp620 instead of Arg620 in the C-terminal domain (protein, UniProt Q9Y2R2 1-807, looked up, variant R620W)
Tyrosine-protein phosphatase …: MDQREILQKFLDEAQSKKITKEEFANEFLKLKRQSTKYKADKTYPTTVAEKPKNIKKNRYKDILPYDYSRVELSLITSDEDSSYINANFIKGVYGPKAYIATQGPLSTTLLDFWRMIWEYSVLIIVMACMEYEMGKKKCERYWAEPGEMQLEFGPFSVSCEAEKRKSDYIIRTLKVKFNSETRTIYQFHYKNWPDHDVPSSIDPILELIWDVRCYQEDDSVPICIHCSAGCGRTGVICAIDYTWMLLKDGIIPENFSVFSLIREMRTQRPSLVQTQEQYELVYNAVLELFKRQMDVIRDKHSGTESQAKHCIPEKNHTLQADSYSPNLPKSTTKAAKMMNQQRTKMEIKESSSFDFRTSEISAKEELVLHPAKSSTSFDFLELNYSFDKNADTTMKWQTKAFPIVGEPLQKHQSLDLGSLLFEGCSNSKPVNAAGRYFNSKVPITRTKSTPFELIQQRETKEVDSKENFSYLESQPHDSCFVEMQAQKVMHVSSAELNYSLPYDSKHQIRNASNVKHHDSSALGVYSYIPLVENPYFSSWPPSGTSSKMSLDLPEKQDGTVFPSSLLPTSSTSLFSYYNSHDSLSLNSPTNISSLLNQESAVLATAPRIDDEIPPPLPVWTPESFIVVEEAGEFSPNVPKSLSSAVKVKIGTSLEWGGTSEPKKFDDSVILRPSKSVKLRSPKSELHQDRSSPPPPLPERTLESFFLADEDCMQAQSIETYSTSYPDTMENSTSSKQTLKTPGKSFTRSKSLKILRNMKKSICNSCPPNKPAESVQSNNSSSFLNFGFANRFSKPKGPRNPPPTWNI
On to B1, for which, in the data set on LYP, the “Phosphatase activity of variant” value was “increased phosphatase activity”. In data set [1] (ref [7], [18]), the “Effect of variant on signaling” value is on record as “gain-of-function inhibitor of signaling”.

B2: PEP: mouse homologue of LYP called PEST-enriched phosphatase (protein, UniProt P29352 1-802, looked up)
Tyrosine-protein phosphatase …: MDQREILQQLLKEAQKKKLNSEEFASEFLKLKRQSTKYKADKIYPTTVAQRPKNIKKNRYKDILPYDHSLVELSLLTSDEDSSYINASFIKGVYGPKAYIATQGPLSTTLLDFWRMIWEYRILVIVMACMEFEMGKKKCERYWAEPGETQLQFGPFSISCEAEKKKSDYKIRTLKAKFNNETRIIYQFHYKNWPDHDVPSSIDPILQLIWDMRCYQEDDCVPICIHCSAGCGRTGVICAVDYTWMLLKDGIIPKNFSVFNLIQEMRTQRPSLVQTQEQYELVYSAVLELFKRHMDVISDNHLGREIQAQCSIPEQSLTVEADSCPLDLPKNAMRDVKTTNQHSKQGAEAESTGGSSLGLRTSTMNAEEELVLHSAKSSPSFNCLELNCGCNNKAVITRNGQARASPVVGEPLQKYQSLDFGSMLFGSCPSALPINTADRYHNSKGPVKRTKSTPFELIQQRKTNDLAVGDGFSCLESQLHEHYSLRELQVQRVAHVSSEELNYSLPGACDASCVPRHSPGALRVHLYTSLAEDPYFSSSPPNSADSKMSFDLPEKQDGATSPGALLPASSTTSFFYSNPHDSLVMNTLTSFSPPLNQETAVEAPSRRTDDEIPPPLPERTPESFIVVEEAGEPSPRVTESLPLVVTFGASPECSGTSEMKSHDSVGFTPSKNVKLRSPKSDRHQDGSPPPPLPERTLESFFLADEDCIQAQAVQTSSTSYPETTENSTSSKQTLRTPGKSFTRSKSLKIFRNMKKSVCNSSSPSKPTERVQPKNSSSFLNFGFGNRFSKPKGPRNPPSAWNM
In the case of B2, the “Catalytic activity vs catalytic domain alone” value with PEP was “much lower than the activity of the catalytic domain alone”. Besides, the “Inhibition of T cell receptor signaling” value in data set [1] (T cells, ref [4]-[8]) was “potently inhibit T cell receptor (TCR) signaling”.
